{"source": "patent US20260258155A1", "about": "(TRIVENI BIO, published 2026)", "binders": {"B1": {"name": "KLK7-L2-Ab2 (antibody, V domains shown)", "VH": "QVQLQESGPGLVKPSQTLSLTCTVSGGSISSGGYYWHWIRQHPGKGLEWIGYIYRSGYTYYNPSLKSRVTISVDTSKNQFSLKLSSVTAADTAVYYCARAKQLTTHRYFDYWGQGTLVTVSS", "VL": "not shown"}, "B2": {"name": "KLK7-L2-Ab1 (antibody, V domains shown)", "VH": "B1 VH with H37S, Y52S, R55Y, Y58S", "VL": "not shown"}, "B3": {"name": "KLK7-L2-Ab4 (antibody, V domains shown)", "VH": "B1 VH with Y35S, H37N, Y52S, Y58S, T105L, H106T", "VL": "not shown"}, "B4": {"name": "KLK7-L2-Ab5 (antibody, V domains shown)", "VH": "B1 VH with H106S", "VL": "not shown"}, "B5": {"name": "KLK7-L3-Ab2 (antibody, V domains shown)", "VH": "QVQLVQSGAEVKKPGSSVKVSCKASGGTFNNYAISWVRQAPGQGLEWMGAIIPIFGVANYAQKFQGRVTITADESTSTAYMELSSLRSEDTAVYYCARGAPNYYGAQSSRGIAFDIWGQGTMVTVSS", "VL": "DIQMTQSPSSVSASVGDRVTITCRASQGISSWLAWYQQKPGKAPKLLIYAASSLQSGVPSRFSGSGSGTDFTLTISSLQPEDFATYYCVQANAFPYKFGGGTKVEIK"}, "B6": {"name": "KLK7-L3-Ab3 (antibody, V domains shown)", "VH": "B5 VH with N30S, N31S, Y32H, S35T, A50G, V57F, A106S, Q107A", "VL": "B5 VL with K97S"}, "B7": {"name": "KLK7-L4-Ab2 (antibody, V domains shown)", "VH": "QLQLQESGPGLVKPSETLSLTCTVSGGSISSSPYNWVWIRQPPGKGLEWIGSILHSGSTYYNPSLKSRVTISVDTSKNQFSLKLSSVTAADTAVYYCARGVPTYWGAASHYYYYMDVWGKGTTVTVSS", "VL": "DIQMTQSPSTLSASVGDRVTITCRASQSISSWLAWYQQKPGKAPKLLIYKASSLESGVPSRFSGSGSGTEFTLTISSLQPDDFATYYCEQYGSESPLTFGGGTKVEIK"}, "B8": {"name": "KLK7-L5-Ab1 (antibody, V domains shown)", "VH": "not shown", "VL": "EIVLTQSPGTLSLSPGERATLSCRASQSVSSDYLAWYQQKPGQAPRLLIYGASSRATGIPDRFSGSGSGTDFTLTISRLEPEDFAVYYCQQYANLWTFGGGTKVEIK"}, "B9": {"name": "KLK7-L5-Ab2 (antibody, V domains shown)", "VH": "QVQLVQSGAEVKKPGASVKVSCKASGYTFAGYDMHWVRQAPGQGLEWMGSINPTSGRTNYAQKFQGRVTMTRDTSISTAYMELSRLRSDDTAVYYCARGGPSTWYGGSAYTYYGADVWGQGTTVTVSS", "VL": "B8 VL with N94P"}, "B10": {"name": "KLK7-L1-Ab4 (antibody, V domains shown)", "VH": "QVQLVQSGAEVKKPGASVKVSCKASGYTFTSEGIHWVRQAPGQGLEWMGSISASSGDTNYAQKLQGRVTMTTDTSTSTAYMELRSLRSDDTAVYYCARAAGYGARHWYFDLWGQGTMVTVSS", "VL": "DIQMTQSPSSLSASVGDRVTITCRASQSISSYLNWYQQKPGKAPKLLIYGASSLQSGVPSRFSGSGSGTDFTLTISSLQPEDFATYYCDQFYSTPPITFGGGTKVEIK"}, "B11": {"name": "KLK7-L1-Ab1 (antibody, V domains shown)", "VH": "B10 VH with A16S, Y27G, T30S, S31N, E32Y, G33A, H35S, S50W, S54Y", "VL": "not shown"}, "B12": {"name": "KLK7-L1-Ab2 (antibody, V domains shown)", "VH": "B10 VH with T30G, S31P, E32Y, H35S, S50W, S54Y, H106W", "VL": "B10 VL with Q90G, F91S"}, "B13": {"name": "KLK7-L1-Ab3 (antibody, V domains shown)", "VH": "B10 VH with K63E", "VL": "B10 VL"}, "B14": {"name": "KLK7-L1-Ab5 (antibody, V domains shown)", "VH": "B10 VH", "VL": "B10 VL with F91W"}, "B15": {"name": "KLK7-L1-Ab6 (antibody, V domains shown)", "VH": "B10 VH with H106S", "VL": "B10 VL"}, "B16": {"name": "KLK7-L1-Ab7 (antibody, V domains shown)", "VH": "B10 VH with A99G, H106D", "VL": "B10 VL with F91R"}, "B17": {"name": "KLK7-L2-Ab3 (antibody, V domains shown)", "VH": "B1 VH with Y35S, H37N, Y52S, Y58S, Q102A, F109V", "VL": "not shown"}, "B18": {"name": "KLK5-L1-Ab5 (antibody, V domains shown)", "VH": "EVQLVESGGGLVQPGGSLRLSCAASGFTFEHYSMNWVRQAPGKGLEWVSYISSSSSYIDYADSVKGRFTISRDNAKNSLYLQMNSLRAEDTAVYYCARDLTDRQSRDYYYYGMDVWGQGTTVTVSS", "VL": "B5 VL with V89Q, A91V, N92P, A93I, K97T", "notes": "also called KLK-L1-Ab5"}, "B19": {"name": "KLK5-L3-Ab6 (antibody, V domains shown)", "VH": "QVQLVQSGAEVKKPGSSVKVSCKASGGTFSGYVISWVRQAPGQGLEWMGGIFPISGYAVYAQKFQGRVTITADESTSTAYMELSSLRSEDTAVYYCARASASGYYDRSYYYYGMDVWGQGTTVTVSS", "VL": "B5 VL with V89Q, A91V, N92S, A93S, Y96Q, K97T"}}, "note": "Residue numbers refer to the chain shown, from its start."}
{"target": "T1, mouse KLK7 (mKLK7) (mouse, UniProt Q91VE3 26-249)", "T1 construct": "Enzymatically active in the protease assay", "T1 sequence (Q91VE3 26-249 limits assumed)": "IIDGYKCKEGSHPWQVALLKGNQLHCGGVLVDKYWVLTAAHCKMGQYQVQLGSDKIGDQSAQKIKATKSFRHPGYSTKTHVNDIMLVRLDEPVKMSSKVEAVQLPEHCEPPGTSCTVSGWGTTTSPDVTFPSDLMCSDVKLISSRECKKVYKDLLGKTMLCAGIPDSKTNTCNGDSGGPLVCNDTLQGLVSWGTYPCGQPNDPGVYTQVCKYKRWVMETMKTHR", "experiment": "Biacore SPR, antibody captured on Protein A chip, single-cycle kinetics, 25 C", "units": {"Kd": "nM"}, "experimental": "(§1) All screening assays were performed at 25 C. The running buffer used was 20 mM HEPES, 300 mM NaCl, 0.01% Tween-20, pH 7.5. Antibodies (1 ug/mL) were captured on Fc2-4 of a Series S ProteinA Sensor Chip (Cytiva) flowing at 10 ul/mL for 30 s. Kinetics measurements were made in single-cycle kinetics mode with a series of 4-5 concentrations with top concentration of 25-100 nM and serial dilution 4-fold. Contact time was typically 300 s and dissociation time ranged from 1800-3600 s. Flow rate of 30 ul/mL was typically used. The sensor chip was regenerated with 10 mM glycine, pH 1.5 with a contact time of 30 s flowing at 50 ul/mL."}
{"binder": "B1", "Kd": 0.0357}
{"binder": "B2", "Kd": 0.0796}
{"binder": "B3", "Kd": 0.0101}
{"binder": "B4", "Kd": 0.018}
{"binder": "B5", "Kd": 0.125}
{"binder": "B6", "Kd": 0.217}
{"binder": "B7", "Kd": 0.0266}
{"binder": "B8", "Kd": 4.86}
{"binder": "B9", "Kd": 0.0253}
{"binder": "B10", "Kd": 0.0107}
{"binder": "B11", "Kd": 1.62}
{"binder": "B12", "Kd": 0.0354}
{"binder": "B13", "Kd": 0.0402}
{"binder": "B14", "Kd": 0.017}
{"binder": "B15", "Kd": 0.0144}
{"binder": "B16", "Kd": 0.0302}
{"target": "T1, mouse KLK7 (mKLK7)", "experiment": "cell-based or functional assay", "units": {"mKLK7 IC50 (protease inhibition)": "nM", "mKLK7 IC90 (protease inhibition)": "nM"}}
{"binder": "B1", "mKLK7 IC50 (protease inhibition)": 2.31, "mKLK7 IC90 (protease inhibition)": 6.01}
{"binder": "B2", "mKLK7 IC90 (protease inhibition)": 5.63}
{"binder": "B17", "mKLK7 IC50 (protease inhibition)": 1.49, "mKLK7 IC90 (protease inhibition)": 4.88}
{"binder": "B3", "mKLK7 IC50 (protease inhibition)": 1.63, "mKLK7 IC90 (protease inhibition)": 6.51}
{"binder": "B4", "mKLK7 IC50 (protease inhibition)": 1.91, "mKLK7 IC90 (protease inhibition)": 6.52}
{"binder": "B5", "mKLK7 IC50 (protease inhibition)": 2.68, "mKLK7 IC90 (protease inhibition)": 11.5}
{"binder": "B6", "mKLK7 IC50 (protease inhibition)": 3.34, "mKLK7 IC90 (protease inhibition)": 11.4}
{"binder": "B7", "mKLK7 IC50 (protease inhibition)": 2.42, "mKLK7 IC90 (protease inhibition)": 9.04}
{"binder": "B8", "mKLK7 IC50 (protease inhibition)": 15, "mKLK7 IC90 (protease inhibition)": 67.3}
{"binder": "B9", "mKLK7 IC50 (protease inhibition)": 1.48, "mKLK7 IC90 (protease inhibition)": 26.5}
{"binder": "B10", "mKLK7 IC50 (protease inhibition)": 1.42, "mKLK7 IC90 (protease inhibition)": 7.12}
{"binder": "B11", "mKLK7 IC50 (protease inhibition)": 0.5, "mKLK7 IC90 (protease inhibition)": 108}
{"binder": "B12", "mKLK7 IC50 (protease inhibition)": 3.42, "mKLK7 IC90 (protease inhibition)": 19.8}
{"binder": "B13", "mKLK7 IC50 (protease inhibition)": 1.46, "mKLK7 IC90 (protease inhibition)": 6.45}
{"binder": "B14", "mKLK7 IC50 (protease inhibition)": 1.35, "mKLK7 IC90 (protease inhibition)": 7.25}
{"binder": "B15", "mKLK7 IC50 (protease inhibition)": 1.25, "mKLK7 IC90 (protease inhibition)": 4.58}
{"binder": "B16", "mKLK7 IC50 (protease inhibition)": 1.06, "mKLK7 IC90 (protease inhibition)": 5.03}
{"target": "human KLK7 (hKLK7), active form (human, UniProt P49862 30-253)", "sequence (P49862 30-253)": "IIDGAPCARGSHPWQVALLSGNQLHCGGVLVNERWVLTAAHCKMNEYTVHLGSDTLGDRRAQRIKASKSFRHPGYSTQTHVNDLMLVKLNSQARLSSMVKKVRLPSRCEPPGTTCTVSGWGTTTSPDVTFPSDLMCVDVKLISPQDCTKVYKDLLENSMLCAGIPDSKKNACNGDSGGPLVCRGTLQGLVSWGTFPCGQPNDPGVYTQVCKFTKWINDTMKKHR", "experiment": "cell-based or functional assay", "units": {"hKLK7 IC50 (protease inhibition)": "nM", "hKLK7 IC90 (protease inhibition)": "nM"}}
{"binder": "B17", "hKLK7 IC50 (protease inhibition)": 0.833, "hKLK7 IC90 (protease inhibition)": 3.39}
{"binder": "B5", "hKLK7 IC50 (protease inhibition)": 0.802, "hKLK7 IC90 (protease inhibition)": 4.43}
{"binder": "B6", "hKLK7 IC50 (protease inhibition)": 1.4, "hKLK7 IC90 (protease inhibition)": 8.25}
{"binder": "B7", "hKLK7 IC50 (protease inhibition)": 1.42, "hKLK7 IC90 (protease inhibition)": 6.34}
{"binder": "B10", "hKLK7 IC50 (protease inhibition)": 0.914, "hKLK7 IC90 (protease inhibition)": 3.67}
{"binder": "B12", "hKLK7 IC50 (protease inhibition)": 1.69, "hKLK7 IC90 (protease inhibition)": 6.11}
{"binder": "B13", "hKLK7 IC50 (protease inhibition)": 1.2, "hKLK7 IC90 (protease inhibition)": 5.03}
{"binder": "B14", "hKLK7 IC50 (protease inhibition)": 1.23, "hKLK7 IC90 (protease inhibition)": 4.66}
{"target": "T2, mouse KLK5 (mKLK5) (mouse)", "T2 construct": "Enzymatically active in the protease assay", "experiment": "Biacore SPR, antibody captured on Protein A chip, single-cycle kinetics, 25 C", "units": {"Kd": "nM"}, "experimental": "as §1"}
{"binder": "B18", "Kd": 0.26}
{"binder": "B19", "Kd": 12}
{"target": "T2, mouse KLK5 (mKLK5)", "experiment": "cell-based or functional assay", "units": {"mKLK5 IC50 (protease inhibition)": "nM", "mKLK5 IC90 (protease inhibition)": "nM"}}
{"binder": "B18", "mKLK5 IC50 (protease inhibition)": 4.1, "mKLK5 IC90 (protease inhibition)": 25}
{"binder": "B19", "mKLK5 IC50 (protease inhibition)": 12.7, "mKLK5 IC90 (protease inhibition)": 80.8}
